# Data as given in patent US20240400677A1 (ELECTRA THERAPEUTICS, published 2024).
# Changes are numbered by the printed parent chain.
# T1: Cynomolgus Monkey SIRPγ (plate-coated extracellular domain)
# T1 construct: also called Cyno SIRPγ
# T1 extracellular domain: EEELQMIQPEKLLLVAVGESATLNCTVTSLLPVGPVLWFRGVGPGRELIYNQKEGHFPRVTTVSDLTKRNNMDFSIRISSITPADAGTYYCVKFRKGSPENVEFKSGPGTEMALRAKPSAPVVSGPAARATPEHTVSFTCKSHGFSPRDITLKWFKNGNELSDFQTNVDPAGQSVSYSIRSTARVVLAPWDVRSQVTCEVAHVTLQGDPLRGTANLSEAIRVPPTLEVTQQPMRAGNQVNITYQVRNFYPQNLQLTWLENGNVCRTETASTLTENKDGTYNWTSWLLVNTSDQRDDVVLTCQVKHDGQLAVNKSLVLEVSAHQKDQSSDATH
# T2: cynomolgus monkey SIRPα on CHO cells (cynomolgus monkey, UniProt A0A2K5VYQ9 31-507)
# T2 construct: whole, on cells; also called Cyno SIRPα CHO
# T2 sequence: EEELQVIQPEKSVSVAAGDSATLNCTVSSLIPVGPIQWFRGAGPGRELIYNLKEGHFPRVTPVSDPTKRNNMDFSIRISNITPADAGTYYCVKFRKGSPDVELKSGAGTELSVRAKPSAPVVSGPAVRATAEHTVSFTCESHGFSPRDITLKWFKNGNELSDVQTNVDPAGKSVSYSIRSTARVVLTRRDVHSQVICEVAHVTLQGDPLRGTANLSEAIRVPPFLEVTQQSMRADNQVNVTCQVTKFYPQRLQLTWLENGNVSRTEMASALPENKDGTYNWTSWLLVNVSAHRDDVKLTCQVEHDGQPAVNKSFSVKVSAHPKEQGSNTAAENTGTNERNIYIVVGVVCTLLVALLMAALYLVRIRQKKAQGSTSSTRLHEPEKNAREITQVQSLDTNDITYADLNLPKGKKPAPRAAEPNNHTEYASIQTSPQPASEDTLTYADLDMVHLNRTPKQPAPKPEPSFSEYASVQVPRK
# B1: Antibody 58 (antibody, V domains shown)
# VH: QVQLVQSGAEVKKPGASVKVSCKASGYTFTAYYMHWVRQAPGQGLEWMGIINPSGGSTSYAQKFQGRVTMTRDTSTSTVYMELSSLRSEDTAVYYCARDSGWYAPGYYYGMDVWGQGTTVTVSS
# VL: DIQMTQSPSSLSASVGDRVTITCRASESISHWLAWYQQKPGKAPKLLIYGASTLQSGVPSRFSGSGSGTDFTLTISSLQPEDFATYYCQQSYTPPLTFGGGTKVEIK
# B2: Antibody 74 (antibody, V domains shown)
# VH: QVQLVQSGAEVKKPGASVKVSCKASGGTFSNYGFSWVRQAPGQGLEWMGWMSPSSGNTGYAQKFQGRVTMTRDTSTSTVYMELSSLRSEDTAVYYCARERSGSYFDYWGQGTLVTVSS
# VL: EIVMTQSPATLSVSPGERATLSCRASQSVSSYLAWYQQKPGQAPRLLIYGTSTRATGIPARFSGSGSGTEFTLTISSLQSEDFAVYYCQQYGSLPFTFGQGTRLEIK
# B3: Antibody 76 (antibody, V domains shown)
# VH: QVQLVQSGAEVKKPGSSVKVSCKASGGTFSKIAVSWVRQAPGQGLEWMGLINPNSGGTDYAQKFQGRVTITADESTSTAYMELSSLRSEDTAVYYCAKDFRGGDYYYYGMDVWGQGTTVTVSS
# VL: B2 VL with Y32N, T51A, G92N, S93T, L94Y, F96I, R103K, L104V
# B4: Antibody 55 (antibody, V domains shown)
# VH: EVQLLESGGGLVQPGGSLRLSCAASGFTFSNSDMNWVRQAPGKGLEWVSYISSSGNTIYYADSVKGRFTISRDNSKNTLYLQMNSLRAEDTAVYYCARSNWNYPLDYYYMDVWGKGTTVTVSS
# VL: DIVMTQSPLSLPVTPGEPASISCRSSQSLLHSNGYNYLDWYLQKPGQSPQLLIYAASSLQSGVPDRFSGSGSGTDFTLKISRVEAEDVGVYYCMQGTHWPPTFGQGTKVEIK
# B5: Antibody 56 (antibody, V domains shown)
# VH: QVQLVQSGAEVKKPGASVKVSCKASGYTFTSYYMHWVRQAPGQGLEWMGWVDPNNGDTGYAQKFQGRVTMTRDTSTSTVYMELSSLRSEDTAVYYCARDNWGSLDVWGKGTTVTVSS
# VL: B4 VL with S58T, T97L, H98Q, W99T, P100L, P101Y, T102S, V109L
# B6: Antibody 77 (antibody, V domains shown)
# VH: QVQLVQSGAEVKKPGASVKVSCKASGYTFTSYGISWVRQAPGQGLEWMGWISAYNGNTNYAQKFQGRVTMTRDTSTSTVYMELSSLRSEDTAVYYCARGTYYDYIWGSYRYSWFDYWGQGTLVTVSS
# VL: not shown
# B7: Antibody 81 (antibody, V domains shown)
# VH: QVQLVQSGAEVKKPGASVKVSCKASGYTFTSYDINWVRQAPGQGLEWMGWISGYNGNTNYAQKFQGRVTMTRDTSTSTVYMELSSLRSEDTAVYYCARSFDWLLLLDYWGQGTLVTVSS
# VL: DIQMTQSPSSLSASVGDRVTITCRASQSISSWLAWYQQKPGKAPKLLIYDATTLESGVPSRFSGSGSGTDFTLTISSLQPEDFATYYCQQYDSYPWTFGQGTKLEIK
# B8: Antibody 62 (antibody, V domains shown)
# VH: QVQLVQSGAEVKKPGASVKVSCKASGGTFSNYDINWVRQAPGQGLEWMGWISAYNGNTNYAQKLQGRVTMTRDTSTSTVYMELSSLRSEDTAVYYCAAEAYGDYSLDPWGQGTLVTVSS
# VL: DIQMTQSPSSLSASVGDRVTITCQASQGISSYLNWYQQKPGKAPKLLIYAASSLQNGVPSRFSGSGSGTDFTLTISSLQPEDFATYYCQQSYSTPITFGQGTRLEIK
# B9: Antibody 78 (antibody, V domains shown)
# VH: QVQLVQSGAEVKKPGASVKVSCKASGYTFTTYGISWVRQAPGQGLEWMGWMDPNSGSTGYAQKFQGRVTMTRDTSTSTVYMELSSLRSEDTAVYYCARGRGNSYYYYYMDVWGKGTTVTVSS
# VL: DIQMTQSPSSLSASVGDRVTITCRASQRIGSYLNWYQQKPGKAPKLLIYGASNLQSGVPSRFSGSGSGTDFTLTISSLQPEDFATYYCQQANSFPFTFGPGTKVDIK
# B10: Antibody 61 (antibody, V domains shown)
# VH: QVQLVQSGAEVKKPGASVKVSCKASGYTFTSHDINWVRQAPGQGLEWMGISNPSGGSTYYAQKFQGRVTMTRDTSTSTVYMELSSLRSEDTAVYYCASSRRYWNGAFDYWGQGTLVTVSS
# VL: not shown
# B11: Antibody 66 (antibody, V domains shown)
# VH: QVQLVQSGAEVKKPGASVKVSCKASGGTFSSYAISWVRQAPGQGLEWMGIINPSSSSTGYAQKFQGRVTMTRDTSTSTVYMELSSLRSEDTAVYYCARAGYYDSSGYYYSPYYGMDVWGQGTTVTVSS
# VL: EIVMTQSPATLSVSPGERATLSCRASQSISGSYLAWYQQKPGQAPRLLIYGASTRATGIPARFSGSGSGTEFTLTISSLQSEDFAVYYCQQYGSFPFTFGPGTKVDIK
# B12: Antibody 67 (antibody, V domains shown)
# VH: QVQLVQSGAEVKKPGASVKVSCKASGYTFTNFDINWVRQAPGQGLEWMGWISAYNGHTNYAQNLQGRVTMTRDTSTSTVYMELSSLRSEDTAVYYCAQEAAAGYFDYWGQGTLVTVSS
# VL: DIQMTQSPSSLSASVGDRVTITCRASQDIRNDLAWYQQKPGKAPKLLIYDASNLETGVPSRFSGSGSGTDFTLTISSLQPEDFATYYCQQSYGTPYTFGQGTKLEIK
# Molecular target: T3, extracellular binding domain of human SIRPγ (plate-coated) (human, UniProt Q9P1W8 29-360)
# T3 construct: also called hSIRPγ
# T3 sequence (Q9P1W8 29-360 limits assumed): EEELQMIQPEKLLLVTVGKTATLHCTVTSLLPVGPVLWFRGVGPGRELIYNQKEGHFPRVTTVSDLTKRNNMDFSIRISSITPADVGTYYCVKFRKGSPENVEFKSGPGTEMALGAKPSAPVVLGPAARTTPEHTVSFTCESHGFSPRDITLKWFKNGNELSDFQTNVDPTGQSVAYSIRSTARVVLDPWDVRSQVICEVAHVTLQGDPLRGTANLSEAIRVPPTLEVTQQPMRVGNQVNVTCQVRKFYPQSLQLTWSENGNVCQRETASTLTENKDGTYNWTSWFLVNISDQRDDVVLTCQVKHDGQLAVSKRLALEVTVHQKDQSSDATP
# Assay: ELISA, coated SIRP ECD (2 µg/mL), anti-human IgG, luminescence
# Method: (§1) Selected hybridoma supernatants of Example 1 were tested for binding to human SIRPγ, cynomolgus monkey SIRPγ, human SIRPα V1, cynomolgus monkey SIRPα, human SIRPβ1, and cynomolgus monkey SIRPβ1 by enzyme-linked immunosorbent assay (ELISA). Briefly, 2 μg/mL of the extracellular domain of SIRP protein was coated onto high protein-binding plates and blocked. Undiluted supernatants were added to coated plates. The antibodies were detected by an anti-rat antibody and a chemiluminescent substrate. […] The data depict the relative luminescence units read by a plate-reader capable of detecting chemiluminescence.
# (§2) FIGS. 2A-2G show binding curves of SIRPγ antibodies and human Fc isotype controls to human SIRPγ, cynomolgus monkey SIRPγ, human SIRPα V1, human SIRPα V2, and human SIRPβ1 by ELISA. […] Isotype control 2 was an unrelated human IgG1 antibody with irrelevant CDRs with no modifications in the Fc region. DNA was transiently transfected into Expi293F cells for 5 days. Antibodies were purified by Protein A from cell supernatants and analyzed in a titration via ELISA as previously described in FIG. 1 using an anti-human IgG antibody as the detection antibody.
row,EC50 (read off the curve) [µg/mL],Binder
1,~0.09,B1
2,~0.4,B2
3,~0.09,B3
4,~0.7,B4
5,~0.7,B5
6,~0.02,B6
7,~0.02,B7

# Molecular target: T1, Cynomolgus Monkey SIRPγ (plate-coated …)
# Assay: as above
# Method: as §1, §2
binding result,EC50 (read off the curve) [µg/mL],Binder
binds,–,B8
binds,–,B9
–,~0.1,B1
binds,–,B10
–,~0.7,B2
–,~0.1,B3
–,~0.1,B11
–,~0.4,B5
–,~0.04,B6
–,~0.04,B7
binds,–,B12

# Molecular target: T2, cynomolgus monkey SIRPα on CHO cells
# Assay: flow cytometry, CHO transfectants, anti-human IgG
# Method: (§3) Selected antibodies were tested for binding to stably transfected human SIRPγ, SIRPαV1, or SIRPβ1 (co-transfected with DAP12) Chinese hamster ovary (CHO) cells via flow cytometry. A titration of select antibodies was added to the cells and detected using a fluorescently labelled secondary anti-rat IgG antibody or anti-human IgG antibody. Graphs depict the median fluorescence intensity (MFI) at each concentration. FIGS. 5A and 5G show the binding curves of select antibodies to human SIRPγ, cynomolgus monkey SIRPγ, human SIRPα, cynomolgus monkey SIRPα, human SIRPβ1, or cynomolgus monkey SIRPβl-expressing CHO cells detected using an anti-rat IgG antibody. FIGS. 5B-5F and 5H-5L show the binding curves of select antibodies to human SIRPγ, cynomolgus monkey SIRPγ, human SIRPα, cynomolgus monkey SIRPα, human SIRPβ1, or cynomolgus monkey SIRPβ1-expressing CHO cells detected using an anti-human IgG antibody. […] For select antibodies, each myc-tagged SIRPγ scFv antibody as crude PPE was incubated with each of the SIRP-expressing cell lines stated above along with the parental CHO-K1 cell line. […] Fold change value <2.0 is considered a non-binder.
row,binding result,Binder
1,no binding (tested: about 20 µg/mL),B8
2,no binding (tested: about 20 µg/mL),B9
3,no binding (tested: about 20 µg/mL),B1
4,no binding (tested: about 20 µg/mL),B2
5,no binding (tested: about 20 µg/mL),B3
6,no binding (tested: about 20 µg/mL),B11
7,no binding (tested: about 20 µg/mL),B4
8,no binding (tested: about 20 µg/mL),B6
9,no binding (tested: about 20 µg/mL),B7
10,no binding (tested: about 20 µg/mL),B12

# Molecular target: T4, human SIRPβ1 on CHO cells (co-transfected with DAP12) (human, UniProt O00241 30-398)
# T4 construct: whole, on cells; co-transfected with DAP12; also called Human SIRPβ1 CHO
# T4 sequence (O00241 30-398): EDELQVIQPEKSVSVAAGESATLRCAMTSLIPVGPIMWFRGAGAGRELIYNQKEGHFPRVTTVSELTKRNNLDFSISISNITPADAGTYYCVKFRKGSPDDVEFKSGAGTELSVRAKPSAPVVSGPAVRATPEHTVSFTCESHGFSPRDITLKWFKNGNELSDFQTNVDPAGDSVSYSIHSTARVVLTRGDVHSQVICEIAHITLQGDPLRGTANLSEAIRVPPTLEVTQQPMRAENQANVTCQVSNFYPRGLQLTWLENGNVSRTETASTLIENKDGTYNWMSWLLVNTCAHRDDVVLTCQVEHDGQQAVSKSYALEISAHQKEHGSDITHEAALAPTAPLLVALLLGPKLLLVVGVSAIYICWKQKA
# Assay: flow cytometry, CHO transfectants, anti-human IgG
# Method: as §3
row,binding result,Binder
1,no binding (tested: about 20 µg/mL),B8
2,no binding (tested: about 20 µg/mL),B9
3,no binding (tested: about 20 µg/mL),B1
4,no binding (tested: about 20 µg/mL),B2
5,no binding (tested: about 20 µg/mL),B3
6,no binding (tested: about 20 µg/mL),B11
7,no binding (tested: about 20 µg/mL),B4
8,no binding (tested: about 20 µg/mL),B5
9,no binding (tested: about 20 µg/mL),B6
10,no binding (tested: about 20 µg/mL),B7
11,no binding (tested: about 20 µg/mL),B12
